Patent US20180092984A1 (Seagen, published 2018)
Values belong to the molecule of their own block, whether it stands above or below them.

How the values were obtained:
human CD48 [1] = target: T1, human CD48 (human, UniProt P09326 27-220); test: flow cytometry saturation binding on U-266 cells
T1 construct: whole, on cells; also called BLAST-1; SLAMF2
T1 sequence (looked up): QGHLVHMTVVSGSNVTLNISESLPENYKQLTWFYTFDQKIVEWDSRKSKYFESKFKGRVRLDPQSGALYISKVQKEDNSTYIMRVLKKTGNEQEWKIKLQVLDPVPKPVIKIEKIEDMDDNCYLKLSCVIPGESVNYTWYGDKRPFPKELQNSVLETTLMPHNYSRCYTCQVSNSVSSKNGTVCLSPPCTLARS
Protocol: (§1) After one hour incubation on ice, cells were washed twice with phosphate buffered saline containing 2% fetal bovine serum and 0.02% sodium azide. Fluorescence was detected on a LSRII flow cytometer and Kd values were determined using one-site binding (hyperbola) non-linear regression in GraphPad Prism.

human CD48 [2] = target: T1, human CD48; test: flow cytometry saturation binding, Alexa Fluor-647 antibody on U-266 cells
Protocol: as §1

[3] = target: cynomolgus monkey CD48 (cynomolgus monkey); test: flow cytometry saturation binding on CHO-DG44 cells expressing cynomolgus monkey CD48
human CD48 [4] = target: T1, human CD48; test: flow cytometry saturation binding, U-266 cells against CHO-DG44 cynomolgus monkey CD48 cells
Protocol: as §1

[5] = target: cynomolgus monkey CD48 (cynomolgus monkey); test: flow cytometry saturation binding, Alexa Fluor-647 antibody on CHO-DG44 cells expressing cynomolgus monkey CD48

fold lower Kd compared to mMEM102 (human CD48 [1]): > 4 fold
Kd (human CD48 [2]): 5.8 nM
fold lower Kd compared to mMEM102 [3]: > 4 fold
fold stronger binding affinity to human CD48 compared to cynomolgus monkey CD48 (human CD48 [4]): 6 fold
Kd [5]: 40.5 nM
Molecule: cMEM102 (antibody)

Kd (human CD48 [2]): 20.8 nM
fold stronger binding affinity to human CD48 compared to cynomolgus monkey CD48 (human CD48 [4]): 6 fold
Kd [5]: 165 nM
Molecule: mMEM102 (antibody)

fold lower Kd compared to mMEM102 (human CD48 [1]): > 4 fold
Kd (human CD48 [2]): 5 nM
fold lower Kd compared to mMEM102 [3]: > 4 fold
fold stronger binding affinity to human CD48 compared to cynomolgus monkey CD48 (human CD48 [4]): ~6 fold
Kd [5]: 31.1 nM
B1: hMEM102-HALA (antibody, V domains shown)
VH: QVQLVQSGSELKKPGASVKVSCKASGYTFTDFGMNWVRQAPGQGLEWMGWINTFTGEPSYGNVFKGRFVFSLDTSVSTAYLQISSLKAEDTAVYYCARRHGNGNVFDSWGQGTLVTVSS
VL: EIVLTQSPDFQSVTPKEKVTITCRASQSIGSNIHWYQQKPDQSPKLLIKYTSESISGVPSRFSGSGSGTDFTLTINSLEAEDAATYYCQQSNSWPLTFGGGTKVEIKR
notes: also called humanized MEM102 antibody; humanized MEM102-HALA antibody
